Source: US20140223606, “COMPOSITIONS AND METHODS COMPRISING SEQUENCES HAVING MEGANUCLEASE ACTIVITY” (PIONEER HI BRED INTERNATIONAL INC, published 2014)
Residue numbers refer to the chain shown, from its start.

Legend:
Assay in all cases: cell_activity; yeast 37 C; 28 C: 4
Conditions in all cases: tags: NLS, 6xHis
ZM6.3(H5) = target: T1, ZM6.3(H5) (artificial)
T1 chain: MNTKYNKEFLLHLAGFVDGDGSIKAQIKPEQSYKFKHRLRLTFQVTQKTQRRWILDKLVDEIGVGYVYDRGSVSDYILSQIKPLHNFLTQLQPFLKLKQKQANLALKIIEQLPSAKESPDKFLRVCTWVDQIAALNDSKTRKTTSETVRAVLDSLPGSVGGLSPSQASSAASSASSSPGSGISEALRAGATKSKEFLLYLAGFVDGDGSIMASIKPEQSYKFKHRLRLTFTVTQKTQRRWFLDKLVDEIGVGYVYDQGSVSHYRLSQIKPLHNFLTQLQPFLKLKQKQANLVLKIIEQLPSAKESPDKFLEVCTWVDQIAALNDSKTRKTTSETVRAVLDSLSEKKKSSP
Experimental: (§1) A 3 mL culture of selective media (MP Biomedical) was inoculated with a single colony of the yeast screening strain and grown at 30° C. overnight. On the following day, a 50 ml YPD culture (MP Biomedical) was started with 2 ml of the overnight culture and grown at 30° C. overnight. On the following day, the cells were harvested by centrifugation at 4000 rpm. The cells were resuspended in 100 ml ice cold water and centrifuged again. The cells were then washed in 1.2 M sorbitol, followed by treatment with 2 ml of 10 mM Tris pH 8.0, 1 mM EDTA, 100 mM Lithium acetate, 10 mM DTT, 0.6M sorbitol for 30 minutes at 30° C. with shaking. The cells were recovered by centrifugation, washed in 40 ml 1.2M sorbitol and finally resuspended in 250 microliters of 1.2M sorbitol. 50 microliter aliquots were transferred to test tubes on ice. Up to 5 microliters of DNA (100-500 nanograms) were added. The suspension was transferred to a 0.2 cm electroporation cuvette, on ice. Electroporation was performed with a pulse charge at 1.5 kV, 200 ohms, 25 microF (pulse time of 5 milliseconds). 1 mL YPD media (MP Biomedical) was added and the cells were allowed to recover at 30° C. for 1-2 hr. The cells were centrifuged, resuspended in 100 uL 1M sorbitol and plated on selective media lacking leucine and containing 2% galactose. The resulting yeast colonies were incubated at various temperatures ranging from 22 to 37 degrees Celsius for 7-10 days. I-CreI and meganucleases derived from it have maximal activity at or above 37 degrees Celsius. Screening was performed at a range of temperatures from 22 to 37 degrees in order to observe increases in activity at lower temperatures which are relevant to certain biological systems (eg. plant cells, plant cell cultures, etc). At that time the red/white sectoring phenotype, indicative of meganuclease activity was observed. Colonies with increased white sectoring over the parental meganuclease (indicating colonies expressing a meganuclease with increased meganuclease activity), also referred to as “hits” and sometimes completely white, were isolated for further analysis.
(§2) A total of 15 Zm6.3 variants with increased activity were confirmed in the yeast system (as described in Example 6). Increased activity was observed across a range of temperatures: 28 degrees Celsius, 30 degrees Celsius and 37 degrees Celsius, as shown in Table 15.

ZM6.3(G1) = target: T2, ZM6.3(G1) (artificial)
T2 chain: T1 chain with H12Y, S32R, Q50R, Q80R, A105V, R124E
Experimental: as §1, §2

ZM6.3(H6) = target: T3, ZM6.3(H6) (artificial)
T3 chain: T1 chain with S32R, A105V, R124E
Experimental: as §1, §2

ZM6.3(G6) = target: T4, ZM6.3(G6) (artificial)
T4 chain: T1 chain with H12Y, K57E, Q237R
Experimental: as §1, §2

ZM6.3(H1) = target: T5, ZM6.3(H1) (artificial)
T5 chain: T1 chain with K24M, S32R, I54F, A105V, V129A, F241I, E311R
Experimental: as §1, §2

Measured: activity

B1: ZM6.3 recognition site (dsDNA)
DNA 1: CAGGCTCTCGTAAATGCGCCTG
DNA 2: CAGGCGCATTTACGAGAGCCTG
4 score 0-4: all assays above
